# Molecular target: Ribonuclease A (Type II-A) from bovine pancreas (bovine) (UniProt P61823)
# Experiment: cell-based or functional assay
# Sequence of Ribonuclease A (Type II-A) from bovine pancreas (bovine) (P61823 27-150): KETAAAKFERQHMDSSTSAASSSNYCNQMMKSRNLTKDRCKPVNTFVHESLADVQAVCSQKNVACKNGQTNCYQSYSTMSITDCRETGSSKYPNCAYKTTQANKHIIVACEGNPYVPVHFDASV
Substance,"IC50 for RNase A activity inhibition, HeLa total RNA cleavage, agarose gel image [nM]","inhibition level, RNA probe assay (fluorophore and quencher), inhibitor at 1 µM [%]"
RNaseOUT recombinant ribonuclease inhibitor,381,27.2
Biofact RNase inhibitor,257,35.8
